Data taken from paper PMC6815954, “Rational design of caspase-responsive smart molecular probe for positron emission tomography imaging of drug-induced apoptosis” (Theranostics, 2019).

Substrate: CC(=O)N[C@@H](CC(=O)O)C(=O)N[C@@H](CCC(=O)O)C(=O)N[C@H](C(=O)N[C@@H](CC(=O)O)C(=O)N[C@@H](CSSC(C)(C)C)C(=O)N[C@@H](Cc1cn(CC[N+](C)(C)C[B-](F)(F)F)nn1)C(=O)Nc1ccc2nc(C#N)sc2c1)C(C)C
Assay: Enzyme kinetics study of cleavage of 1
Format: biochemical, human
Details: other: 1 at 0.1-2 mM, caspase-3 0.4 μg/1 mL, assay buffer pH 7.4, 37 °C, 1 h, HPLC
Description: Figure S17. (A) HPLC traces of probe 1 incubated with the cell lysates of apoptotic HeLa cells for 8 h.
Bottom: probe 1 alone; Top: reduced product (*) and cyclized product (#). (B) The content of 1-dimer after incubation with the cell lysates of apoptotic HeLa cells at different time.
For the enzyme-controlled cleavage kinetics studies, the probe 1 at different concentrations (0.1, 0.25, 0.5, 1, and 2 mM) was incubated with the caspase-3 (0.4 μg/1 mL) assay buffer (pH = 7.4) containing 50 mM HEPES, 100 mM NaCl, 1 mM EDTA, 1 mM DTT, 10% glycerol, and 0.1% CHAPS at 37 °C for 1 h, respectively. Then the caspase-3-cleaved intermediates were characterized by HPLC, and the kinetic parameters were determined according to the method reported previously. 4,5
Figure S18. Kinetic studies for the cleavage of probe 1 towards caspase-3.
Biocompatibility of 1 and 1-NPs
One cancer cell line (HeLa) and three normal cell lines (GES-1, LO2 and HEK293) were cultured in DMEM supplemented with 10% fetal bovine serum (FBS, Gibco). The cells were grown in tissue culture dishes and kept in a humidified atmosphere of 5% CO 2 at 37 °C. The […]
(1 picture or pasted object on this page, not shown here)

B1: caspase-3 (Homo sapiens) (protein)
chain 1: SGISLDNSYKMDYPEMGLCIIINNKNFHKSTGMTSRSGTDVDAANLRETFRNLKYEVRNKNDLTREEIVELMRDVSKEDHSKRSSFVCVLLSHGEEGIIFGTNGPVDLKKITNFFRGDRCRSLTGKPKLFIIQACRGTELDCGIETD
chain 2: SGVDDDMACHKIPVEADFLYAYSTAPGYYSWRNSKDGSWFIQSLCAMLKQYADKLEFMHILTRVNRKVATEFESFSFDATFHAKKQIPCIVSMLTKELYFYH
Q: Which results are given for B1?
A: Km: 330.43 µM; kcat: 6.22 s⁻¹; kcat/Km: 17617.56 M⁻¹ s⁻¹
